We go through two molecules from PMC5408610, “Identification and characterization of a 20β-HSDH from the anaerobic gut bacterium Butyricicoccus desmolans ATCC 43058” (Journal of Lipid Research, 2017).

The target of data set [1] is 20β-hydroxysteroid dehydrogenase (20β-HSDH) from Butyricicoccus desmolans ATCC 43058 (Butyricicoccus desmolans ATCC 43058). The experiment in a line: SEC; Superdex 200 analytical column, 4°C; 50 mM Tris-Cl, 300 mM NaCl, 10% glycerol, 10 mM 2-mercaptoethanol, 0.1% Triton X-100, pH 7.5; native mass from retention volume against standard proteins, divided by the subunit mass from SDS-PAGE. In general terms: Size exclusion chromatography separates by hydrodynamic size, large species first.

Substrate in the data set “purified protein”: C[C@]12CCC(=O)C=C1CC[C@@H]1[C@@H]2[C@@H](O)C[C@@]2(C)[C@H]1CC[C@]2(O)C(=O)CO
The data set is described as follows: purified protein. It is filed as biochemical, Agathobaculum desmolans. The settings on record: reductive direction, saturating NADH, 0.05 μM enzyme, standard assay 50 mM phosphate pH 7.5, temperature not stated for Km.

With “20β-hydroxysteroid dehydrogenase (20β-HSDH) from Butyricicoccus desmolans ATCC 43058 (enzyme)”, the stoichiometry N in data set [1] came out at 3.96.

B1: 20β-HSDH (r20β-HSDH, desE) of B. desmolans ATCC 43058 (Agathobaculum desmolans ATCC 43058) (protein)
chain: MAEEFYAVYPKDAWKDPSYRLMDKFSLKGKKGFVTGGGGGIGRNTAAAWAEAGADVALVDIPASKDRLEPLAKEMSERYGVKVVPLYCDVSDEEQVNALKDDLIRELGTVDFAHINAGVCLMGDDVDVPYSTWKKVIDIDLNGAFMTAQVAQQIMREHNHGGSIIMTSSLSGYNANFIGGGPSPVCAYGTAKAGISQLARYMGAGLAPYGIRVNTISPGYIWSGIHEGVMDKAGHDMCLEVVPIKRFGRTDELQGVMLFLASEASSYITGINIPVDGGYSIF
notes: N-terminal Strep-tag from pET-51b(+), E. coli BL21-CodonPlus(DE3) RIPL
B1: in “purified protein”, the Km turned out to be 0.80 ± 0.06 µM and the maximal velocity (Vmax) turned out to be 30.4 µmol/min.

As a reminder, the stoichiometry N is a count of units in the complex or per binding partner. In general, Km refers to the concentration of substrate that gives half-maximal velocity. The term Vmax denotes the top rate of the reaction or transport when substrate is in excess.
